Test results taken from patent USRE49495E1, “Binding polypeptides having a mutated scaffold” (Affibody AB, priority 2013, dated 2023).
Blank lines part the entries; values can stand above or below the molecule they belong to.

What was measured:
[1] = Circular dichroism, variable temperature measurement (Tm) and spectra before and after heating; format: physicochemical; settings: His6-tagged, 0.5 mg/ml in PBS, CD at 221 nm, 20 to 90° C.
Method: Circular dichroism (CD) analysis was carried out to determine the melting temperatures (Tm) and assess potential changes in the secondary structure of the inventive polypeptides as a result of the amino acid substitutions.
Purified His6-tagged Z variants were diluted to 0.5 mg/ml in PBS. For each diluted Z variant, a CD spectrum at 250-195 nm was recorded at 20° C. A variable temperature measurement (VTM) was performed to determine the Tm. In the VTM, the absorbance was measured at 221 nm while the temperature was raised from 20 to 90° C., with a temperature slope of 5° C./min. After the VTM, a second CD spectrum at 250-195 nm was recorded at 20° C. The CD measurements were performed on a Jasco J-810 spectropolarimeter (Jasco Scandinavia AB) using a cell with an optical path-length of 1 mm.

human HER2-Fc = target: T1, human HER2-Fc (Homo sapiens, UniProt P04626); assay: Biacore 2000 comparative kinetic analysis, HER2; format: binding; settings: for KDInv/KDOrig: original set to 1.0; for KD(2w)/KD(0): KD after stability test relative to KD before
T1 construct: Fc; purchased R&D Systems 1129-ER-050
Method: (§1) A set of polypeptides showing improved stability properties in Example 12 were further assessed in terms of preserved binding capacities to their targets after introduction of alterations in the scaffold, as well as after having been subjected to the stability test, i.e. incubated at 37° C. for 2 weeks. Comparative kinetic constants (kon and koff) and affinities (KD) were determined using a Biacore 2000 instrument. The target proteins human HER2-Fc (R&D Systems, cat. no. 1129-ER-050), human PDGF-Rβ (R&D Systems, cat. no. 385-PR-100/CF), human FcRn (Biorbyt, cat. no. orb 84388) and human CAIX (R&D Systems, cat. no. 2188-CA), respectively, were immobilized on the carboxylated dextran layer surface of CM5 chips (GE Healthcare). The immobilization was performed using amine coupling chemistry according to the manufacturer's protocol and using HBS-EP as running buffer. One flow cell surface on the chip was activated and deactivated for use as blank during analyte injections. The immobilization level of target protein on the respective surface was approximately 850 RU for HER2, 2200 RU for PDGF-Rβ, 750 for FcRn and 580 RU for CAIX.
(§2) HBS-EP (HER2, PDGF-Rβ, CAIX) or a pH 6.0 Na2HPO4/citric acid buffer (126 mM Na2HPO4, 37 mM citric acid) (FcRn) was used as running buffer and the flow rate was 30 μl/min in the binding experiments performed at 25° C. as further described below.
The Z variants Z02891 (SEQ ID NO:27), Z17341 (SEQ ID NO:28), and Z17342 (SEQ ID NO:29) targeting HER2 were diluted in running buffer to final concentrations of 3.33, 10, 30 and 90 nM and injected for 5 minutes, followed by 30 minutes of dissociation in running buffer. Regeneration by four pulses alternating between 10 mM HCl and 10 mM NaOH followed by 5 min equilibration in running buffer was applied after each analyte injection.
(§3) Kinetic constants were calculated from the sensorgrams using the Langmuir 1:1 model (HER2, FcRn, CAIX) or the 1:1 binding with mass transfer model (PDGF-Rβ) of the BiaEvaluation software 4.1 (GE Healthcare). Curves of the blank surface were subtracted from the curves of the ligand surfaces and the data from the buffer cycles were subtracted from the data of the test-sample cycles to correct for any drift in signal.

human FcRn = target: T2, human FcRn (Homo sapiens, UniProt P55899); assay: Biacore 2000 comparative kinetic analysis, FcRn; format: binding; settings: for KDInv/KDOrig: original set to 1.0
T2 construct: purchased Biorbyt orb 84388
Method: Comparative kinetic constants (kon and koff) and affinities (KD) were determined using a Biacore 2000 instrument. The target proteins human HER2-Fc (R&D Systems, cat. no. 1129-ER-050), human PDGF-Rβ (R&D Systems, cat. no. 385-PR-100/CF), human FcRn (Biorbyt, cat. no. orb 84388) and human CAIX (R&D Systems, cat. no. 2188-CA), respectively, were immobilized on the carboxylated dextran layer surface of CM5 chips (GE Healthcare). The immobilization was performed using amine coupling chemistry according to the manufacturer's protocol and using HBS-EP as running buffer. One flow cell surface on the chip was activated and deactivated for use as blank during analyte injections.
as §2
Regeneration by three pulses of HBS-EP followed by 10 min equilibration in running buffer was applied after each analyte injection.
as §3

human PDGF-Rβ = target: T3, human PDGF-Rβ (Homo sapiens, UniProt P09619); assay: Biacore 2000 comparative kinetic analysis, PDGF-Rβ; format: binding; settings: for KDInv/KDOrig: original set to 1.0
T3 construct: purchased R&D Systems 385-PR-100/CF
Method: as §1, §2
The Z variants Z15805 (SEQ ID NO:30), Z17343 (SEQ ID NO:31), and Z17344 (SEQ ID NO:32) targeting PDGF-R13 were diluted in running buffer to final concentrations of 6.67, 20, 60 and 180 nM and injected for 5 minutes, followed by 20 minutes of dissociation in running buffer. Regeneration by three pulses of 10 mM NaOH followed by 5 min equilibration in running buffer was applied after each analyte injection.
as §3

[2] = target: human FcRn (Biorbyt, cat. no. orb 84388) (human) (UniProt P55899); assay: SPR Biacore 2000, FcRn on CM5 chip, pH 6.0, 1:1 Langmuir; sample (0) before stability test
[3] = target: human FcRn (Biorbyt, cat. no. orb 84388) (human) (UniProt P55899); assay: SPR Biacore 2000, FcRn on CM5 chip, pH 6.0, 1:1 Langmuir; sample (2w) after 2 weeks at 37 C
[4] = target: human FcRn (Biorbyt, cat. no. orb 84388) (human) (UniProt P55899); assay: SPR Biacore 2000, FcRn on CM5 chip, pH 6.0, 1:1 Langmuir; KD after 2 weeks at 37 C against KD before
[5] = target: human FcRn (Biorbyt, cat. no. orb 84388) (human) (UniProt P55899); assay: SPR Biacore 2000, FcRn on CM5 chip, pH 6.0, 1:1 Langmuir; sample (0) before stability test; reference Z10103 (0)
[6] = target: human FcRn (Biorbyt, cat. no. orb 84388) (human) (UniProt P55899); assay: SPR Biacore 2000, FcRn on CM5 chip, pH 6.0, 1:1 Langmuir; sample (2w) after 2 weeks at 37 C; reference Z10103 (2w)
[7] = Accelerated stability study of C5 binding polypeptides, 2 weeks at 37° C., SDS-PAGE and Reversed Phase HPLC (RPC); format: physicochemical
[8] = Three month stability test at 37° C., RPC main peak
[9] = target: T4, human HER2-Fc (R&D Systems, cat. no. 1129-ER-050) (human, UniProt P04626 23-652); assay: SPR Biacore 2000, HER2-Fc on CM5 chip, 1:1 Langmuir; sample (0) before stability test
T4 construct: Bought; also called human epidermal growth factor receptor 2; not shown: Fc part of the bought fusion protein

[10] = target: T4, human HER2-Fc (R&D Systems, cat. no. …); assay: SPR Biacore 2000, HER2-Fc on CM5 chip, 1:1 Langmuir; sample (2w) after 2 weeks at 37 C
[11] = target: T4, human HER2-Fc (R&D Systems, cat. no. …); assay: SPR Biacore 2000, HER2-Fc on CM5 chip, 1:1 Langmuir; KD after 2 weeks at 37 C against KD before
[12] = target: T4, human HER2-Fc (R&D Systems, cat. no. …); assay: SPR Biacore 2000, HER2-Fc on CM5 chip, 1:1 Langmuir; sample (0) before stability test; reference Z02891 (0)
[13] = target: T4, human HER2-Fc (R&D Systems, cat. no. …); assay: SPR Biacore 2000, HER2-Fc on CM5 chip, 1:1 Langmuir; sample (2w) after 2 weeks at 37 C; reference Z02891 (2w)
[14] = (0) prior to stability test, comparative, not absolute
[15] = (2w) after 2 weeks at 37° C., comparative, not absolute
[16] = (0) prior to stability test, pH 6.0
[17] = (2w) after 2 weeks at 37° C., pH 6.0
[18] = KD after stability test relative to KD before
[19] = compared with original Z variant

T3 sequence (P09619 with tags, fused parts or gaps limits assumed): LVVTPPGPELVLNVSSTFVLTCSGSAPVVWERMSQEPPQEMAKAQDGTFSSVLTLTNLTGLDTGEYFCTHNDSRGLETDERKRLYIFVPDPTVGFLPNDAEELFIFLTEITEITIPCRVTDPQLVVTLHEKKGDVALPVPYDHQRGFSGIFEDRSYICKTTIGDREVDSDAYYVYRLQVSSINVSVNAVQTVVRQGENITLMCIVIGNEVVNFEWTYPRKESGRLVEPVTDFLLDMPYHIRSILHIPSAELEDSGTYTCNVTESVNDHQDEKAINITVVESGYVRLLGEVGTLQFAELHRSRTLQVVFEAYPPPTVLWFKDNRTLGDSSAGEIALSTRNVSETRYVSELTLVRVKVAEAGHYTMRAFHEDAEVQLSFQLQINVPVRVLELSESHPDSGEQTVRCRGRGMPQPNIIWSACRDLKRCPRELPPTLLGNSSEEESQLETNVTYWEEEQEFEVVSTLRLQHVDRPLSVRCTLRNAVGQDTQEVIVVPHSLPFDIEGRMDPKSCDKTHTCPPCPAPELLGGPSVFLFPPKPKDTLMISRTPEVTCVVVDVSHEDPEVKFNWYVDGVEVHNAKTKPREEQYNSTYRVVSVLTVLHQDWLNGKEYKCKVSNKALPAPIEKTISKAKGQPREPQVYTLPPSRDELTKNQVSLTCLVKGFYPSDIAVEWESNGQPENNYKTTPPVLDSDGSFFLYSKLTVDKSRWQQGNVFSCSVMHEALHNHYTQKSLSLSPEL

ka (human HER2-Fc; (0) prior to stability test): 1.33e+06 M/s
kd (human HER2-Fc; (0) prior to stability test): 7.1e-05 s⁻¹
Kd (human HER2-Fc; [14]): 0.054 nM
KDInv/KDOrig (human HER2-Fc; (0) prior to stability test): 1.0
ka (human HER2-Fc; (2w) after 2 weeks at 37° C.): 1.15e+06 M/s
kd (human HER2-Fc; (2w) after 2 weeks at 37° C.): 7.19e-05 s⁻¹
Kd (human HER2-Fc; [15]): 0.062 nM
KDInv/KDOrig (human HER2-Fc; (2w) after 2 weeks at 37° C.): 1.0
KD(2w)/KD(0) (human HER2-Fc): 1.17
Molecule: Z02891: original Z variant polypeptide targeting HER2, His6-tagged [reference compound]
Tm (° C.) [1]: 70 °C

KDInv/KDOrig (human FcRn; (0) prior to stability test): 1.93
ka (human FcRn; [16]): 1.82e+06 M/s
kd (human FcRn; [16]): 0.01 s⁻¹
Kd (human FcRn; (0) prior to stability test, pH 6.0, comparative, not absolute): 5.5 nM
KDInv/KDOrig (human FcRn; (2w) after 2 weeks at 37° C.): 3.46
ka (human FcRn; [17]): 1.28e+06 M/s
kd (human FcRn; [17]): 0.00809 s⁻¹
Kd (human FcRn; (2w) after 2 weeks at 37° C., pH 6.0, comparative, not absolute): 6.3 nM
KD(2w)/KD(0) (human FcRn; [18]): 1.14
effect of scaffold substitutions on the affinity (human FcRn; [19]): more negative effect on the affinity
Kd (human FcRn; range of magnitude): ~1 nM
Molecule: Z17348: inventive FcRn binding Z variant; D36R, D37Q, S39E, N52S, D53E (AEAKYAKEQDAAAHEIRWLPNLTFDQRVAFIHKLARQPEQSSELLSEAKKLSESQAPK; Engineered FcRn binding Z variant)
Tm (° C.) [1]: 44 °C

ka (human PDGF-Rβ; (0) prior to stability test): 5.15e+07 M/s
kd (human PDGF-Rβ; (0) prior to stability test): 0.0616 s⁻¹
Kd (human PDGF-Rβ; [14]): 1.2 nM
KDInv/KDOrig (human PDGF-Rβ; (0) prior to stability test): 6.19
ka (human PDGF-Rβ; (2w) after 2 weeks at 37° C.): 5.62e+07 M/s
kd (human PDGF-Rβ; (2w) after 2 weeks at 37° C.): 0.0623 s⁻¹
Kd (human PDGF-Rβ; [15]): 1.1 nM
KDInv/KDOrig (human PDGF-Rβ; (2w) after 2 weeks at 37° C.): 3.88
KD(2w)/KD(0) (human PDGF-Rβ; [18]): 0.93
effect of scaffold substitutions on the affinity (human PDGF-Rβ; [19]): more negative effect on the affinity
Kd (human PDGF-Rβ; range of magnitude): ~1 nM
Molecule: Z17344: inventive PDGF-Rβ binding Z variant; D36R, D37Q, S39E, N52S, D53E (AEAKYAKELIEAAAEIDALPNLTRRQWNAFIKKLVRQPEQSSELLSEAKKLSESQAPK; Engineered PDGFRbeta binding Z variant)
Tm (° C.) [1]: 42 °C

ka (human HER2-Fc; (0) prior to stability test): 894000 M/s
kd (human HER2-Fc; (0) prior to stability test): 0.00157 s⁻¹
Kd (human HER2-Fc; [14]): 1.8 nM
KDInv/KDOrig (human HER2-Fc; (0) prior to stability test): 33
ka (human HER2-Fc; (2w) after 2 weeks at 37° C.): 649000 M/s
kd (human HER2-Fc; (2w) after 2 weeks at 37° C.): 0.0015 s⁻¹
Kd (human HER2-Fc; [15]): 2.3 nM
KDInv/KDOrig (human HER2-Fc; (2w) after 2 weeks at 37° C.): 37
KD(2w)/KD(0) (human HER2-Fc): 1.31
effect of scaffold substitutions on the affinity (human HER2-Fc; [19]): more negative effect on the affinity
Kd (human HER2-Fc; range of magnitude): ~1 nM
Molecule: Z17342: inventive HER2 binding Z variant; D36R, D37Q, S39E, N52S, D53E (AEAKYAKEMRNAYWEIALLPNLTNQQKRAFIRKLYRQPEQSSELLSEAKKLSESQAPK; Engineered HER2 binding Z variant)
Tm (° C.) [1]: 62 °C

Kd [2]: 5.5 nM
koff [2]: 0.01 s⁻¹
kon [2]: 1.82e+06 M⁻¹ s⁻¹
Kd [3]: 6.3 nM
koff [3]: 0.00809 s⁻¹
kon [3]: 1.28e+06 M⁻¹ s⁻¹
KD(2w)/KD(0) [4]: 1.14
KDInv/KDOrig [5]: 1.93
KDInv/KDOrig [6]: 3.46
B1: Z17348 (designed binder)
chain: MGSSHHHHHHLQAEAKYAKEQDAAAHEIRWLPNLTFDQRVAFIHKLARQPEQSSELLSEAKKLSESQAPK

B2: PSI0383: C5 binding polypeptide fused to albumin binding domain; ND to SE in positions 52-53 (protein)
chain: AEAKYAKEVLEAWDEIDRLPNLTIEQWLAFINKLDRQPEQSSELLSEAKKLSESQAPKVEGSLAEAKEAANAELDSYGVSDFYKRLIDKAKTVEGVEALKDAILAALP
modifications: Engineered C5 binding Z variant
Main peak (% of total protein) ([7]; RPC, after 2 weeks at 37° C., 25 mM NaP/125 mM NaCl pH 7.0): 91%
2 weeks, 37° C. Main peak (% of total protein) ([7]; RPC, data from Example 2 repeated in Table 8): 91%
stability when compared with PSI0242 ([7]; conclusion from Table 1, 2 weeks at 37° C.): increased stability
stability after 3 months at 37° C. compared with PSI0242 after 2 weeks [8]: higher proportion of protein in the original form
3 months, 37° C. Main peak (% of total protein) ([8]; RPC): 59%

Kd [9]: 1.8 nM
koff [9]: 0.00157 s⁻¹
kon [9]: 894000 M⁻¹ s⁻¹
Kd [10]: 2.3 nM
koff [10]: 0.0015 s⁻¹
kon [10]: 649000 M⁻¹ s⁻¹
KD(2w)/KD(0) [11]: 1.31 ratio
KDInv/KDOrig [12]: 33 ratio
KDInv/KDOrig [13]: 37 ratio
B3: Z17342 (designed binder)
chain: MGSSHHHHHHLQAEAKYAKEMRNAYWEIALLPNLTNQQKRAFIRKLYRQPEQSSELLSEAKKLSESQAPK
